In paper PMC3178552:

Assays:
[1] = target: vesicular stomatitis virus nucleoprotein lacking its 21 N-terminal residues (N[change]), MBP tag removed (vesicular stomatitis virus) (UniProt P03521); assay: SEC-MALS
[2] = target: vesicular stomatitis virus nucleoprotein lacking its 21 N-terminal residues (N[change]), MBP tag removed (vesicular stomatitis virus) (UniProt P03521); assay: crystal structure

Row | Substance | stoichiometry N [1] | stoichiometry N [2]
1 | P60: the first 60 amino acids of VSV phosphoprotein P, a two-amino acid linker and a C-terminal His6-tag (from UniProt P03520 1-60) (peptide) | 1 | –
2 | vesicular stomatitis virus nucleoprotein lacking its 21 N-terminal residues (N[change]), MBP tag removed (from UniProt P03521 22-422) (domain or fragment) | – | 10
